Assay in all cases: semi-native SDS-PAGE with anti-HA immunoblot
In general terms: In western blotting, separated proteins are transferred to a membrane and probed.

The target of experiment [1] is BnGLP8:HA (Brassica napus).
Experiment [2] concerns the target BnGLP3.1:HA (Brassica napus).
For experiment [3], the target named is BnGLP12.2:HA (Brassica napus).
For experiment [4], the target named is BnGLP3.2:HA (Brassica napus).
Experiment [5] has as its target BnGLP12.1:HA (Brassica napus).

Among the data in publication PMC3444267 are stoichiometry N values, retold here.

The term stoichiometry N denotes the number of molecules, sites or subunits per partner or assembly. BnGLP8:HA (natural protein): the stoichiometry N in experiment [1] turned out to be 6.

With BnGLP3.1:HA (natural protein), the stoichiometry N in experiment [2] was determined as 6. On to BnGLP12.2:HA (natural protein), for which the stoichiometry N in experiment [3] stood at 6. BnGLP3.2:HA (natural protein) displayed a stoichiometry N in experiment [4] of 6. Regarding BnGLP12.1:HA (natural protein), the stoichiometry N in experiment [5] worked out at 6.
